Source: the supplement of paper PMC9233669
Fewer inactive variants are shown than the library holds.

Experiments:
biotinyl-Trp-oxazolone = assay: self-aminoacylation, catalytic enhancement (BWO) (fold over background); higher = more active; k-Seq, kA / k0A0; sequences stand for … in GGGAAUGGAUCCACAUCUACGAAUUC…UUCACUGCAGACUUGACGAAGCUG
Method in brief: (§1)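 Mutagenized RNA pools with a 21-nt variable region (0.43 μM) reacted with each biotinyl-aminoacyl-oxazolone at 2–1250 μM. Reactions ran in 50 μL HEPES/NaCl/KCl/MgCl2/CaCl2 buffer with 5% acetonitrile, pH 6.9–7.0, for 90 minutes at room temperature. Streptavidin-captured RNA was quantified by triplicate qPCR and Illumina sequencing, and per-sequence fraction reacted was fit to a pseudo-first-order model with 1000 bootstraps. Catalytic enhancement is median kA divided by the uncatalyzed rate, the low-activity peak of a bimodal Gaussian fit.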

biotinyl-Ile-oxazolone = assay: self-aminoacylation, catalytic enhancement (BIO) (fold over background); higher = more active; k-Seq, kA / k0A0; sequences stand for … in GGGAAUGGAUCCACAUCUACGAAUUC…UUCACUGCAGACUUGACGAAGCUG
Method in brief: as §1

biotinyl-Leu-oxazolone = assay: self-aminoacylation, catalytic enhancement (BLO) (fold over background); higher = more active; k-Seq, kA / k0A0; sequences stand for … in GGGAAUGGAUCCACAUCUACGAAUUC…UUCACUGCAGACUUGACGAAGCUG
Method in brief: as §1

biotinyl-Met-oxazolone = assay: self-aminoacylation, catalytic enhancement (BMO) (fold over background); higher = more active; k-Seq, kA / k0A0; sequences stand for … in GGGAAUGGAUCCACAUCUACGAAUUC…UUCACUGCAGACUUGACGAAGCUG
Method in brief: as §1

biotinyl-Val-oxazolone = assay: self-aminoacylation, catalytic enhancement (BVO) (fold over background); higher = more active; k-Seq, kA / k0A0; sequences stand for … in GGGAAUGGAUCCACAUCUACGAAUUC…UUCACUGCAGACUUGACGAAGCUG
Method in brief: as §1

biotinyl-Phe-oxazolone = assay: self-aminoacylation, catalytic enhancement (BFO) (fold over background); higher = more active; k-Seq, kA / k0A0; sequences stand for … in GGGAAUGGAUCCACAUCUACGAAUUC…UUCACUGCAGACUUGACGAAGCUG
Method in brief: as §1

Sequence | self-aminoacylation (biotinyl-Trp-oxazolone) | self-aminoacylation (biotinyl-Ile-oxazolone) | self-aminoacylation (biotinyl-Leu-oxazolone) | self-aminoacylation (biotinyl-Met-oxazolone) | self-aminoacylation (biotinyl-Val-oxazolone) | self-aminoacylation (biotinyl-Phe-oxazolone)
AAGUUUGCUAACAGUCGCGAG [Fam3.1 aminoacylation ribozyme variant] | 2.46 | 1.02 | 1.24 | 0.591 | 1.12 | 1.64
AUUCACCCAGGUCAUUGGGUG [Fam2.2 aminoacylation ribozyme variant] | 3.71 | 2.31 | 4.11 | 3.36 | 2.52 | 23.8
AGGUUUGCUAAUAGUCGCAAA [Fam3.1 aminoacylation ribozyme variant] | 1.92 | 2.52 | 2.42 | 2.11 | 2.2 | 3.21
CUGCAUCAAACAAUCGGUCUG [Fam1A.1 aminoacylation ribozyme variant] | 7.51 | 1.08 | 1.18 | 1.13 | 1.05 | 10.1
CCACACUGCAAGCAAUCGCUC [Fam1B.1 aminoacylation ribozyme variant] | 1.78 | 2.73 | 2.4 | 2.1 | 2.35 | 16
CUCGUUCAAACAAUCGGUCUG [Fam1A.1 aminoacylation ribozyme variant] | 6.95 | 1.09 | 1.31 | 0.961 | 1.07 | 10.2
AUUACCAUGGUCAUCCAGUGA [Fam2.1 aminoacylation ribozyme variant] | 8 | 3.62 | 6.27 | 5.96 | 3.46 | 28.2
AUAACCCUGGUCAACGAGUGA [Fam2.1 aminoacylation ribozyme variant] | 6.89 | 3.32 | 5.91 | 6.45 | 3.33 | 31.1
AUAACCCUGGUCAUCGAGGGA [Fam2.1 aminoacylation ribozyme variant] | 0.626 | 1.52 | 2.12 | 1.45 | 1.43 | 2.14
ACUCACCUGGGUCAUCGGGUG [Fam2.2 aminoacylation ribozyme variant] | 8.05 | 4.86 | 5.61 | 4.83 | 4.66 | 38.9
CUUACCCUGGUCAUCGAGUUA [Fam2.1 aminoacylation ribozyme variant] | 2.08 | 1.53 | 2.36 | 2.5 | 1.73 | 4.79
CUUCUUCAAACAGUCGGUCUG [Fam1A.1 aminoacylation ribozyme variant] | 0.848 | 0.697 | 0.803 | 0.821 | 0.771 | 0.711
AUUCACCCAUGUCAUCGGGUG [Fam2.2 aminoacylation ribozyme variant] | 5.22 | 3.72 | 7.33 | 6.58 | 3.15 | 46.4
CCACACUUCAAGCAUUCGUUC [Fam1B.1 aminoacylation ribozyme variant] | 0.688 | 0.852 | 0.653 | 0.685 | 1.02 | 0.811
AAGUUUCCGAAUAGUCGCAAG [Fam3.1 aminoacylation ribozyme variant] | 1.87 | 2.01 | 1.7 | 1.73 | 1.79 | 2.81
AUUACCCUGGUCAACGGGUGA [Fam2.1 aminoacylation ribozyme variant] | 10.8 | 4.83 | 9.68 | 9.43 | 4.61 | 46.6
UUACUUCAAACAAUCGGUAUG [Fam1A.1 aminoacylation ribozyme variant] | 7.05 | 1.16 | 1.3 | 1.02 | 1.02 | 12.4
AUUACCCUAGUCAUCGGGUGA [Fam2.1 aminoacylation ribozyme variant] | 9.08 | 4.76 | 8.62 | 7.55 | 4.8 | 49.2
CCACACUCUAAGCAAUCGGUC [Fam1B.1 aminoacylation ribozyme variant] | 0.903 | 0.985 | 0.683 | 0.69 | 1.06 | 1.04
CCACACUUCAAUCAACCGGUC [Fam1B.1 aminoacylation ribozyme variant] | 1.22 | 0.862 | 1.06 | 0.665 | 1.02 | 0.923
AUUACCCUGGUCAACGCGUGA [Fam2.1 aminoacylation ribozyme variant] | 12.3 | 4.65 | 12.5 | 10.8 | 6.15 | 72.1
CCACACUUCCAUCAAUCGGUC [Fam1B.1 aminoacylation ribozyme variant] | 0.586 | 0.683 | 0.593 | 0.561 | 0.732 | 0.715
AUGGACCUAGGUCAUCGGGUG [Fam2.2 aminoacylation ribozyme variant] | 4.36 | 3.46 | 4.55 | 3.77 | 3.04 | 22
AAGUUUGCUAAAAGUCGGAAG [Fam3.1 aminoacylation ribozyme variant] | 1.22 | 0.814 | 0.778 | 0.755 | 0.924 | 5.57
UUUACCCUGGUCAUCGAGUCA [Fam2.1 aminoacylation ribozyme variant] | 0.585 | 0.707 | 0.713 | 0.696 | 0.738 | 1.06
CUAGUUCACACAAUCGGUCUG [Fam1A.1 aminoacylation ribozyme variant] | 1.19 | 1.28 | 1.36 | 1.13 | 1.14 | 2.8

Sequence | self-aminoacylation (biotinyl-Trp-oxazolone) | self-aminoacylation (biotinyl-Ile-oxazolone) | self-aminoacylation (biotinyl-Leu-oxazolone) | self-aminoacylation (biotinyl-Met-oxazolone) | self-aminoacylation (biotinyl-Val-oxazolone) | self-aminoacylation (biotinyl-Phe-oxazolone)
AUUACCCUGGUCGUAGAGUGA [Fam2.1 aminoacylation ribozyme variant] | 2.26 | 1.17 | 1.84 | 1.28 | 1.09 | 3.08
CUAAUUCAAACAAUCGAUCUG [Fam1A.1 aminoacylation ribozyme variant] | 0.361 | 0.604 | 0.544 | 0.43 | 0.561 | 0.72
AUUACCCUGGUCAUGGAAUGA [Fam2.1 aminoacylation ribozyme variant] | 2.08 | 1.19 | 1.17 | 1.53 | 1.21 | 1.95
AUUCACCUAGGUCAGCGGGCG [Fam2.2 aminoacylation ribozyme variant] | 4.44 | 5.22 | 7.99 | 5.27 | 5.42 | 27
AUUCACCUAGGUCAUCGGUUA [Fam2.2 aminoacylation ribozyme variant] | 1.35 | 1.11 | 1.27 | 1.28 | 1.17 | 1.09
CCACACUUCACGGAAUCGGUC [Fam1B.1 aminoacylation ribozyme variant] | 0.915 | 1.16 | 1.65 | 1.14 | 1.39 | 1.01
CAGUGUGCUAAUAGUCGCAAG [Fam3.1 aminoacylation ribozyme variant] | 1.59 | 1.51 | 1.46 | 1.58 | 1.46 | 1.76
AUUAACCCGGUCAUCGAGUGA [Fam2.1 aminoacylation ribozyme variant] | 9.1 | 3.71 | 7.87 | 7.21 | 4.15 | 54.5
AAGUUUCCUAAUAGUCGCAAA [Fam3.1 aminoacylation ribozyme variant] | 1.96 | 1.99 | 1.99 | 1.74 | 1.43 | 3.59
AUUCCCCUGGGUCAUCGGGUG [Fam2.2 aminoacylation ribozyme variant] | 13.3 | 8.62 | 16.9 | 12.2 | 9.66 | 107
AUUACCCUGGUCCUCAAGUGA [Fam2.1 aminoacylation ribozyme variant] | 3.02 | 1.64 | 2.29 | 2.16 | 2.02 | 7.45
AUACUUCAAACAAUUGGUCUG [Fam1A.1 aminoacylation ribozyme variant] | 1.16 | 1.19 | 0.956 | 0.903 | 1.04 | 1.16
CUUCACCUAGGUCAUCGUGUG [Fam2.2 aminoacylation ribozyme variant] | 1.12 | 1.21 | 1.39 | 1.6 | 1.26 | 3.33
AUUACGCUGGUCAUUGAGUGA [Fam2.1 aminoacylation ribozyme variant] | 6.92 | 3.29 | 5.87 | 5.32 | 3 | 21.2
GUUCACCUAGGCCAUCGGGUG [Fam2.2 aminoacylation ribozyme variant] | 3.64 | 3.17 | 3.61 | 3.77 | 3.86 | 25.4
AUUCACCUCUGUCAUCGGGUG [Fam2.2 aminoacylation ribozyme variant] | 7.31 | 3.8 | 10.1 | 7.32 | 4.06 | 54.5
CCACAGUUCAUGCAAUCGGUC [Fam1B.1 aminoacylation ribozyme variant] | 0.884 | 1.1 | 1.16 | 0.972 | 1.12 | 0.779
AUUACCCUGGUCAUCGAGUUC [Fam2.1 aminoacylation ribozyme variant] | 1.54 | 1.02 | 2.17 | 1.88 | 1.53 | 4.38
CUACGUCAAACAAACGGUCUG [Fam1A.1 aminoacylation ribozyme variant] | 0.904 | 1.06 | 1.16 | 1.08 | 1.03 | 0.89
AUUCACCAAGGUCAUCCGGUG [Fam2.2 aminoacylation ribozyme variant] | 7.89 | 5.51 | 11.4 | 7.8 | 4.96 | 59.6
CUACUUCAAACGAUCAGUCUG [Fam1A.1 aminoacylation ribozyme variant] | 0.734 | 0.633 | 0.549 | 0.593 | 0.751 | 1.22
AUUACCCUGGUCAUCGGCUGA [Fam2.1 aminoacylation ribozyme variant] | 2.77 | 2.74 | 2.77 | 1.54 | 3.04 | 4.87
AAAUUUGCCAAUAGUCGCAAG [Fam3.1 aminoacylation ribozyme variant] | 2.14 | 1.77 | 1.76 | 1.69 | 1.65 | 2.17
AUUCAACUAGGUCAUCGAGUG [Fam2.2 aminoacylation ribozyme variant] | 1.84 | 1.55 | 3.13 | 2.2 | 1.45 | 2.85
GUAUUUCAAACAAUCGGUCUG [Fam1A.1 aminoacylation ribozyme variant] | 2.34 | 1.1 | 1.02 | 1.09 | 1.04 | 2.64
